Results as given in patent US20250145673A1 (AFFILOGIC, published 2025).
Where a chain is given by its changes, count along the chain named.

B1: polypeptide having the amino acid sequence of SEQ ID NO: 27 (designed binder)
chain: MVKVKFEATGEEKEVDTSKIYQVYRSGKEVLFTYDDNGKTGWGYVSEKDAPKELLDMLARAEREK
notes: Sac7d variant (Nanofitin); also called parental clone of cluster 6; Nanofitin
B2: polypeptide comprising the amino acid sequence of SEQ ID NO: 33 (designed binder)
chain: MVKVKFAATGEEKEVETSKIANVYRVGKDVLFSYDDQGKIGWGYVSEKDAPKELLDLLARAEREK
B3: polypeptide comprising the amino acid sequence of SEQ ID NO: 34 (designed binder)
chain: B2 chain with A7D, A21S, N22A, V26T
B4: Fab NF-E (Fab fusion protein comprising SEQ ID NO: 59 and SEQ ID NO: 57) (other)
heavy: EVQLVESGGGLVQPGGSLRLSCAASGYDFTHYGMNWVRQAPGKGLEWVGWINTYTGEPTYAADFKRRFTFSLDTSKSTAYLQMNSLRAEDTAVYYCAKYPYYYGTSHWYFDVWGQGTLVTVSSASTKGPSVFPLAPSSKSTSGGTAALGCLVKDYFPEPVTVSWNSGALTSGVHTFPAVLQSSGLYSLSSVVTVPSSSLGTQTYICNVNHKPSNTKVDKKVEPKSCDKTHLGSGGSGSAGSGSGGSVKVKFVFSGEEKEVETSKIKWVLRWGKAVGFKYDDQGKIGYGFVAEKDAPKELLDLLARAERE
light: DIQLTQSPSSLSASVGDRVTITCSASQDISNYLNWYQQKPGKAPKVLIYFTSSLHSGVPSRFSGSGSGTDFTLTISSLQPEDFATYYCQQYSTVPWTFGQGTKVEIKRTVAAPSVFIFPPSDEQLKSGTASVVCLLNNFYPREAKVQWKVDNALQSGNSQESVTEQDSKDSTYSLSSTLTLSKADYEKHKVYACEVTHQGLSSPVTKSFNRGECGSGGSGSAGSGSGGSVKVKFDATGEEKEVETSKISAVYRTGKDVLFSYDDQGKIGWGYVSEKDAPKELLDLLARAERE
notes: Signal peptide cleaved off prior to secretion
B5: Fab NF-F (Fab fusion protein comprising SEQ ID NO: 63 and SEQ ID NO: 35) (other)
heavy: EVQLVESGGGLVQPGGSLRLSCAASGYDFTHYGMNWVRQAPGKGLEWVGWINTYTGEPTYAADFKRRFTFSLDTSKSTAYLQMNSLRAEDTAVYYCAKYPYYYGTSHWYFDVWGQGTLVTVSSASTKGPSVFPLAPSSKSTSGGTAALGCLVKDYFPEPVTVSWNSGALTSGVHTFPAVLQSSGLYSLSSVVTVPSSSLGTQTYICNVNHKPSNTKVDKKVEPKSCDKTHLGSGGSGSAGSGSGGSVKVKFVFSGEEKEVETSKIKWVLRWGKAVGFKYDDQGKIGYGFVAEKDAPKELLDLLARAEREKGSGGSGSAGSGSGGSVKVKFDATGEEKEVETSKISAVYRTGKDVLFSYDDQGKIGWGYVSEKDAPKELLDLLARAERE
light: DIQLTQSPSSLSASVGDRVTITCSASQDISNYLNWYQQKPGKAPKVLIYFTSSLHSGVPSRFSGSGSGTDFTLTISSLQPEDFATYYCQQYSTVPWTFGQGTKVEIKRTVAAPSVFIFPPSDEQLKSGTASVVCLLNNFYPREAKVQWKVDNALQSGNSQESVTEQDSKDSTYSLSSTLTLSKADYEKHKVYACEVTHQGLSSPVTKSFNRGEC
B6: Fab NF-H (Fab fusion protein comprising SEQ ID NO: 63 and SEQ ID NO: 62) (other)
heavy: B5 heavy
light: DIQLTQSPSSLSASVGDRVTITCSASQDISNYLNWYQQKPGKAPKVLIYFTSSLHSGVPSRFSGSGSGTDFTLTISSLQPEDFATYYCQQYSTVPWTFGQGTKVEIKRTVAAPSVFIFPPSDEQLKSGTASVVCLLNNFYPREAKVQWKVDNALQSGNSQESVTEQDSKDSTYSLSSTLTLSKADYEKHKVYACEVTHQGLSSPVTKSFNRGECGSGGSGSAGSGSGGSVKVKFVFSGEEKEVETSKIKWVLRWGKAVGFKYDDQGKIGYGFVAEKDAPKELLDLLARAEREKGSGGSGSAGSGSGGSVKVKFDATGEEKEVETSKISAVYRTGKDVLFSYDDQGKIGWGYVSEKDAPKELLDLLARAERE
B7: Fab NF-I (Fab fusion protein comprising SEQ ID NO: 36 and SEQ ID NO: 60) (other)
heavy: EVQLVESGGGLVQPGGSLRLSCAASGYDFTHYGMNWVRQAPGKGLEWVGWINTYTGEPTYAADFKRRFTFSLDTSKSTAYLQMNSLRAEDTAVYYCAKYPYYYGTSHWYFDVWGQGTLVTVSSASTKGPSVFPLAPSSKSTSGGTAALGCLVKDYFPEPVTVSWNSGALTSGVHTFPAVLQSSGLYSLSSVVTVPSSSLGTQTYICNVNHKPSNTKVDKKVEPKSCDKTHL
light: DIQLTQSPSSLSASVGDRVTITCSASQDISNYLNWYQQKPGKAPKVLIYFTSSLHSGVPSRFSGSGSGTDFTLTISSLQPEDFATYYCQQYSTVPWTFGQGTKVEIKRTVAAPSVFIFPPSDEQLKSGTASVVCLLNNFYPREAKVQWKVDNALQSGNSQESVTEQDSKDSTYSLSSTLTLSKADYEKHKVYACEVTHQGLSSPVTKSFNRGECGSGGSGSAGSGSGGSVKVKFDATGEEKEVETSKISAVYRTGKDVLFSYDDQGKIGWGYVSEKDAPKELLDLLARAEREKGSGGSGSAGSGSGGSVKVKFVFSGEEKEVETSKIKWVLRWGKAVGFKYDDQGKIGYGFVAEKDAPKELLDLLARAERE
B8: Fab NF-J (Fab fusion protein comprising SEQ ID NO: 58 and SEQ ID NO: 62) (other)
heavy: EVQLVESGGGLVQPGGSLRLSCAASGYDFTHYGMNWVRQAPGKGLEWVGWINTYTGEPTYAADFKRRFTFSLDTSKSTAYLQMNSLRAEDTAVYYCAKYPYYYGTSHWYFDVWGQGTLVTVSSASTKGPSVFPLAPSSKSTSGGTAALGCLVKDYFPEPVTVSWNSGALTSGVHTFPAVLQSSGLYSLSSVVTVPSSSLGTQTYICNVNHKPSNTKVDKKVEPKSCDKTHLGSGGSGSAGSGSGGSVKVKFDATGEEKEVETSKISAVYRTGKDVLFSYDDQGKIGWGYVSEKDAPKELLDLLARAERE
light: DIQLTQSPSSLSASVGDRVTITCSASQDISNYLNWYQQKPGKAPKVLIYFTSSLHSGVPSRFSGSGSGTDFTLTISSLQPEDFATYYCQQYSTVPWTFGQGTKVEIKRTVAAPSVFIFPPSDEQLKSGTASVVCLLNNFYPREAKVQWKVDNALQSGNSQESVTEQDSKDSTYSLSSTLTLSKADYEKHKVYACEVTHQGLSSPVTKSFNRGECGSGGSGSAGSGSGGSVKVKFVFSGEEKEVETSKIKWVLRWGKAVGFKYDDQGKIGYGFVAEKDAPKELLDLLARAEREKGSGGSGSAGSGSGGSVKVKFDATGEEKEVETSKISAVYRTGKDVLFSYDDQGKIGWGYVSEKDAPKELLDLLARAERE
B9: Fab NF-G (Fab fusion protein comprising SEQ ID NO: 61 and SEQ ID NO: 60) (other)
heavy: EVQLVESGGGLVQPGGSLRLSCAASGYDFTHYGMNWVRQAPGKGLEWVGWINTYTGEPTYAADFKRRFTFSLDTSKSTAYLQMNSLRAEDTAVYYCAKYPYYYGTSHWYFDVWGQGTLVTVSSASTKGPSVFPLAPSSKSTSGGTAALGCLVKDYFPEPVTVSWNSGALTSGVHTFPAVLQSSGLYSLSSVVTVPSSSLGTQTYICNVNHKPSNTKVDKKVEPKSCDKTHLGSGGSGSAGSGSGGSVKVKFDATGEEKEVETSKISAVYRTGKDVLFSYDDQGKIGWGYVSEKDAPKELLDLLARAEREKGSGGSGSAGSGSGGSVKVKFVFSGEEKEVETSKIKWVLRWGKAVGFKYDDQGKIGYGFVAEKDAPKELLDLLARAERE
light: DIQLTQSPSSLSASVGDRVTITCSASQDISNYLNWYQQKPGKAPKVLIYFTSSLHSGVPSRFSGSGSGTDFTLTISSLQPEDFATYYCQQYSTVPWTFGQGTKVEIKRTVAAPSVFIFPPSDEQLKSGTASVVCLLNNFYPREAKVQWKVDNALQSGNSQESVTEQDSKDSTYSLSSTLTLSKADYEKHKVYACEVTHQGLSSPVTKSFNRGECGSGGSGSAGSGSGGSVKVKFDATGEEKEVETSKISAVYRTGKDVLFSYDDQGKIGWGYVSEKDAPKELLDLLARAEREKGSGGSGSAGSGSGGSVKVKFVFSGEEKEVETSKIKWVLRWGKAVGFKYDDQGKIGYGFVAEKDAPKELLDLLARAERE

target: T1, complement component 3 (C3) (UniProt P01024 23-1663); test: ITC, polypeptide titrated into C3; fit box in the lower panel
T1 construct: Purified bought protein; native C3 is a disulfide-linked two-chain protein made from one precursor
T1 sequence (P01024 23-1663 limits assumed): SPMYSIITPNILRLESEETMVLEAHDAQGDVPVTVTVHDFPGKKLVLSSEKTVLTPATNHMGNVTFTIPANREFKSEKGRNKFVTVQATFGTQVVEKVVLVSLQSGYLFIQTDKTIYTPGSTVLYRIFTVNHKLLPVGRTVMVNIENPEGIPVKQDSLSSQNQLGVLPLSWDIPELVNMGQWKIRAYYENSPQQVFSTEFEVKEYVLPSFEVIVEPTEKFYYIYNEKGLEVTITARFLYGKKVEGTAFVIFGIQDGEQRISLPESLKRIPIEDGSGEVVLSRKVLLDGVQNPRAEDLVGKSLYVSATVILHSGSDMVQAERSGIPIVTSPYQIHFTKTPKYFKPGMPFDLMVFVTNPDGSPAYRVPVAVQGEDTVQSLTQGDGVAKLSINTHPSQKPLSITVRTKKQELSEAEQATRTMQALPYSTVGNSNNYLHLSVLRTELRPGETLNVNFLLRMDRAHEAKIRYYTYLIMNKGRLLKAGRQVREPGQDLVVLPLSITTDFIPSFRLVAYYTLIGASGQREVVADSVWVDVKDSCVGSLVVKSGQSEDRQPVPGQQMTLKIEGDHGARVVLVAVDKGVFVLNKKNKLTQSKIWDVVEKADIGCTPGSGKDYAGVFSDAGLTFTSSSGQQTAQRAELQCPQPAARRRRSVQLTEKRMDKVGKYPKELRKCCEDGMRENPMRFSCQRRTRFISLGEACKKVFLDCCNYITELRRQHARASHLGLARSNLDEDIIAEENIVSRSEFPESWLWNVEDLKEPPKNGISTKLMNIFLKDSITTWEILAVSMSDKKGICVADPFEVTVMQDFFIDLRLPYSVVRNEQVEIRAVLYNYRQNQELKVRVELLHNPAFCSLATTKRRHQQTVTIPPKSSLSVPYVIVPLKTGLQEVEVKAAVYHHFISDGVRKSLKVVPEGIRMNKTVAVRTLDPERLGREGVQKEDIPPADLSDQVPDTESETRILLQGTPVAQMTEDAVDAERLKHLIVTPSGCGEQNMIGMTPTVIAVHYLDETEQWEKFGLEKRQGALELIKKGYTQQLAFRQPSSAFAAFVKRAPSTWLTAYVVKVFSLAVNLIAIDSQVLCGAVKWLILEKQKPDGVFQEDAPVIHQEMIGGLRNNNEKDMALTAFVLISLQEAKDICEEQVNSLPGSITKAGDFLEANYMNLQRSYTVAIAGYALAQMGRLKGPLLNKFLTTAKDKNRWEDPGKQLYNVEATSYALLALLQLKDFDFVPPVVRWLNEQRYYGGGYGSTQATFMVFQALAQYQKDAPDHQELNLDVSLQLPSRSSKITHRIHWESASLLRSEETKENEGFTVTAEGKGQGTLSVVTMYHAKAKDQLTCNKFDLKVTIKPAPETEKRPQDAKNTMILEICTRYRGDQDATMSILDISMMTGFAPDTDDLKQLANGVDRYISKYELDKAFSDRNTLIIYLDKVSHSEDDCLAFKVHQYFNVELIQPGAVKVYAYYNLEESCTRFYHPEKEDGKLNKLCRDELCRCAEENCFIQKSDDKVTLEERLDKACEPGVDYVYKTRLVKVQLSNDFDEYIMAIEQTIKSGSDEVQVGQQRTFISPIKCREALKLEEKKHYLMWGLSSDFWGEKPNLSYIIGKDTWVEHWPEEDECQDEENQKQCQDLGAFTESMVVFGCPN

Binder | Ka [M⁻¹]
B1 | 4.74e+08

target: T1, complement component 3 (C3); test: SPR, target amine-coupled to chip, single cycle kinetics, 1:1 Langmuir fit
Experimental: (§1) In summary, ligands were immobilized under the following conditions: 25° C. on a Sierra Sensors HCA (CM5), Running Buffer of PBST (10 mM Phosphate Buffer pH 7.4, 150 mM NaCl, 0.05% Tween-20; pH 7.4), amine coupling Immobilization Buffer of 10 mM NaOAc pH 4.0, activation with EDC/NHS 6 minutes, immobilization for 1 minute, and blocking with 1 M ethanolamine.
An 8-point, 3-fold serial dilution assay was performed in duplicate for the polypeptides described in Example 1 starting at either 20 nM, 50 nM, or 200 nM.
(§2) Sensorgrams were analyzed using Sierra Sensors Analyzer software version 3.1.33 with a double reference to determine the interaction parameters ka, kd, and KD. The reference channel was first subtracted from the ligand channel as the first reference. The internal blank injections were set to closest blank after injection based on the method. The kd was calculated for the top concentration by fitting the off-rate part of the curve. The kd was then set to global constant for fitting rest of the curves. Rmax was fit locally for each individual curve since the number of available binding sites changed after each injection. Binding data was fit to a 1:1 Langmuir model.

Binder | Kd [nM]
B1 | 1.94
B2 | 0.22
B3 | 0.66

target: human serum albumin (HSA) (human, UniProt P02768 25-609); test: SPR, HSA amine-coupled to chip, single cycle kinetics, 1:1 Langmuir fit
Experimental: C3, VEGF, and HSA were placed onto Spots B, C, and D, respectively, across all 8 channels to test for the binding of the supplied analytes. Spot A was used as a reference spot. The conditioned biosensor chip was chemically activated with EDC/NHS. Ligands were then injected onto the activated surface to allow for immobilization. After immobilization, 1 M ethanolamine was injected to block any remaining reactive carboxyl groups in the carboxymethylated dextran surface.
as §1, with “5.0,” for “4.0,”, “7” for “6”, “2 minutes,” for “1 minute,”, “ethanolamine for 7 minutes.” for “ethanolamine.”
as §2, with “An 8-point, 3-fold serial dilution assay was performed in duplicate for the Fab fusion proteins described in Example 8 starting at 100 nM. Sensorgrams” for “Sensorgrams”, “Analyzer” for “Analyzer software version 3.1.33”

Chain of human serum albumin (HSA) (P02768 25-609 limits assumed): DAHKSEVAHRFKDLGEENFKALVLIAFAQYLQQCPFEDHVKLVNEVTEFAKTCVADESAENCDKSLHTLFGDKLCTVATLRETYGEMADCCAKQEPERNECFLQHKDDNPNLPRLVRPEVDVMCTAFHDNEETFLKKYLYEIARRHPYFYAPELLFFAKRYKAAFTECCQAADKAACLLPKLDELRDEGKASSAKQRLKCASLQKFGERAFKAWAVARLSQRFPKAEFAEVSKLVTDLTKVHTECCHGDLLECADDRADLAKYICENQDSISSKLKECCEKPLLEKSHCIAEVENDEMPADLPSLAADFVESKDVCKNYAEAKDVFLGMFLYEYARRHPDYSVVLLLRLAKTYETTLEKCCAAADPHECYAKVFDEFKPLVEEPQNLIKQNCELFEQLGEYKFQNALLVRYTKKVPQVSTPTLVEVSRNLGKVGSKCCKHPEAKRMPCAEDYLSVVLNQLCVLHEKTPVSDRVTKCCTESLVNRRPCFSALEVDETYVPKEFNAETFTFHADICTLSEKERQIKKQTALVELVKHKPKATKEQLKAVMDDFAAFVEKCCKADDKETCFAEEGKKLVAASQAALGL

Binder | Kd [nM]
B4 | 3
B5 | 90.6
B6 | 0.1
B7 | 8.9
B8 | 16.9
B9 | 16.9

target: T1, complement component 3 (C3); test: ITC, binder titrated into target

Binder | -TΔS [kcal/mol] | Kd [nM] | N | ΔG [kcal/mol] | ΔH [kcal/mol]
B1 | 23.4 | 2.1 | 0.98 | -11.8 | -35.2
B2 | 6.6 | 1.9 | 0.94 | -11.9 | -18.5
B3 | 16.7 | 1.3 | 0.85 | -12.1 | -28.8

target: T1, complement component 3 (C3); test: ITC; ITC, not SPR

Binder | Kd [nM]
B1 | 2.1

target: T1, complement component 3 (C3); test: cell-based or functional assay

Binder | IC50 (nM) Alternative Pathway (Wieslab® assay) [nM] | IC50 (nM) Classical Pathway (Wieslab® assay) [nM]
B4 | 246 | 65
B5 | 273 | 78
B6 | 123 | 47
B7 | 170 | 63
B8 | 121 | 48

target: T1, complement component 3 (C3); test: SPR, single cycle kinetics, 1:1 Langmuir fit; text says C3 (Cat #A113c) was immobilised, the column's head prints 'Binding to C3b'
Experimental: C3 binding, VEGF binding, HSA binding, and equilibrium dissociation constant (KD) measurements were determined by Surface Plasmon Resonance (SPR) using the Sierra SPR-23 instrument. C3 protein was obtained from Complement Technology, Inc. (Cat #A113c). VEGF protein was obtained from Sino Biologicals, Inc. HSA protein was obtained from Sigma-Aldrich, Inc. (Cat #A3782). The Fab fusion proteins described in Example 8 were stored each at 1 mg/mL in PBST, pH 7.4.
as §1, with “5.0,” for “4.0,”, “7” for “6”, “2 minutes,” for “1 minute,”, “ethanolamine for 7 minutes.” for “ethanolamine.”
as §2, with “An 8-point, 3-fold serial dilution assay was performed in duplicate for the Fab fusion proteins described in Example 8 starting at 100 nM. Sensorgrams” for “Sensorgrams”, “Analyzer” for “Analyzer software version 3.1.33”

Binder | Kd [nM]
B4 | 1.31
B5 | 4.09
B6 | 0.13
B7 | 1.42
B8 | 0.14
B9 | 0.21

target: T1, complement component 3 (C3); test: cell-based or functional assay; remark: another data set of the same source

Binder | IC50 (nM) Alternative (ELISA-based complement activation assay) [nM] | IC50 (nM) Classical (ELISA-based complement activation assay) [nM]
B1 | 700 | 743
B2 | 447 | 63
B3 | 286 | 79

target: T1, complement component 3 (C3); test: ITC, polypeptide titrated into C3; fit box in the lower panel; remark: another data set of the same source

Binder | Ka [M⁻¹]
B2 | 5.36e+08

target: T1, complement component 3 (C3); test: ITC

Binder | Kd [nM]
B2 | 1.9
B3 | 1.3
